This is an account of results in patent publication CN112851810A (BEIJING GUANGWEI BIOTECHNOLOGY CO LTD, dated 2021).

The experiment concerns the target T1, 人CD20 (human CD20) (human, UniProt P11836 1-297, limits assumed).
T1 construct: also called 人CD20蛋白; 抗原
T1 sequence (looked up): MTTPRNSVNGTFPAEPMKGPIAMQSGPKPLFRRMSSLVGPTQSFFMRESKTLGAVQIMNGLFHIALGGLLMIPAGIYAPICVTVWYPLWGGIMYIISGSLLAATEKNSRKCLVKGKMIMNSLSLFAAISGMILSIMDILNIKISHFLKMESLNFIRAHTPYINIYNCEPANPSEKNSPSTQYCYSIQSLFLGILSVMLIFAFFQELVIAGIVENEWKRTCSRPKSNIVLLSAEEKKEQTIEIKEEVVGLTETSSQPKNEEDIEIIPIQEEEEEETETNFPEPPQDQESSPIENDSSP
The experiment can be described thus: SPR (CM5 chip, antibody captured by anti-human capture antibody, antigen as analyte from 10 nM).

B1: Rituximab (antibody, V domains shown)
VH: QVQLQQPGAELVKPGASVKMSCKASGYTFTSYNMHWVKQTPGRGLEWIGAIYPGNGDTSYNQKFKGKATLTADKSSSTAYMQLSSLTSEDSAVYYCARSTYYGGDWYFNVWGAGTTVTVSA
VL: QIVLSQSPAILSASPGEKVTMTCRASSSVSYIHWFQQKPGSSPKPWIYATSNLASGVPVRFSGSGSGTSYSLTISRVEAEDAATYYCQQWTSNPPTFGGGTKLEIK
B1 showed a Kd of 5.46 nM, a koff of 0.000345 s⁻¹ and a kon of 63100 M⁻¹ s⁻¹.

B2: h12H7-IgG1 (antibody, V domains shown)
VH: QVQLVQSGAEVKKPGASVKVSCKASDYTFTSYAGKWVRQAPGQGLEWIGAIPTKGNDTSYNQFLKGRVTMTADTSTSTVYMELSSLRSEDTAVYYCAKGIDGCNFDYWGQGTTVTVSS
VL: DIQMTQSPSSVSASVGDRVTITCKASQRVATGVAWYQQKPGKAPKALIYSAIGNRTGVPSRFSGSGSGTDFTLTISSLQPEDFATYYCQQASKIDAYPTFGQGTKLEIK
Molecule B2 came in with a Kd of 0.307 nM, a koff of 4.21e-05 s⁻¹ and a kon of 137000 M⁻¹ s⁻¹.
